# From paper PMC12354141
# Target: human neonatal Fc receptor (FcRn), His-tagged (human) (UniProt P55899)
# Experiment: BLI
row,Kd,Substance
1,19.7 to 29.2 nM,"US Prolia^® (denosumab reference drug product, US-licensed) (antibody)"
2,17.2 to 30.1 nM,RGB-14-P (Gedeon Richter's proposed denosumab biosimilar to Prolia^®) (antibody)
3,18.1 to 33.5 nM,"US Xgeva^® (denosumab reference drug product, US-licensed) (antibody)"
4,21.6 to 27.2 nM,RGB-14-X (Gedeon Richter's proposed denosumab biosimilar to Xgeva^®) (antibody)
5,14.7 to 36.2 nM,"EU Xgeva^® (denosumab reference drug product, EU-licensed) (antibody)"
6,17.7 to 38.5 nM,"EU Prolia^® (denosumab reference drug product, EU-licensed) (antibody)"

# Target: FcγRIIIa/CD16a 158V, His-tagged (human)
# Experiment: BLI
# FcγRIIIa/CD16a 158V, His-tagged (human), sequence (P08637 17-208): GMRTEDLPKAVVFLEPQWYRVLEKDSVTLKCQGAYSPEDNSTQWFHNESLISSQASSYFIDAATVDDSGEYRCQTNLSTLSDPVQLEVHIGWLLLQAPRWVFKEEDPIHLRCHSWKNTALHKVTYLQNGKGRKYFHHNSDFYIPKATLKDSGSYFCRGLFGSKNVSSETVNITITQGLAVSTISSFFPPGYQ
row,Kd,Substance
1,15000 nM,denosumab (as such; mean over the products) (antibody)
